We go through two molecules from publication PMC11998062, “One-Pot Total Synthesis of a Post-translationally Modified Max Transcription Factor Sheds Light on Ser-Phosphorylation and Lys-Acetylation Crosstalk in DNA Binding”.

Series [1] has as its system MaxS2pS11pK31AcK57Ac S2pS;S11pS;K31Ac;K57Ac;M1Nle;M65Nle;M148Nle, P61244-2. As to the kind of experiment: BLI. The note with it: EMSA: 10 mM MES pH 6.0, 150 mM KCl, 1 mM MgCl2, 10% glycerol, room temperature 30 min, 8% TBE gel; CD: same buffer; BLI: 1x PBS, 0.1% BSA, 0.02% Tween-20, 65 nM.
Series [2] concerns the target Max-WT (UniProt P61244-2, M1Nle;M65Nle;M148Nle). Nature of the series: EMSA; 1 uM DNA, 0-8 uM protein, 1 mM MgCl2; EMSA: 10 mM MES pH 6.0, 150 mM KCl, 1 mM MgCl2, 10% glycerol, room temperature 30 min, 8% TBE gel; CD: same buffer; BLI: 1x PBS, 0.1% BSA, 0.02% Tween-20, 65 nM biotinylated DNA loaded (temperature not in material). The note with it: tags: C-terminal extra K; chain copies: 2.

MaxS2pS11pK31AcK57Ac S2pS;S11pS;K31Ac;K57Ac;M1Nle;M65Nle;M148Nle, P61244-2, sequence (P61244 whole entry, looked up): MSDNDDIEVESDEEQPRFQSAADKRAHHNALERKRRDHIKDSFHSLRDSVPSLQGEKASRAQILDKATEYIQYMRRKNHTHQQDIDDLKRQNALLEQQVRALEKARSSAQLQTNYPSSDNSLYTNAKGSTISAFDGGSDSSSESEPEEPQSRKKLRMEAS
Max-WT, sequence (P61244 other isoform, or with tags, fused parts or gaps M1Nle;M65Nle;M148Nle): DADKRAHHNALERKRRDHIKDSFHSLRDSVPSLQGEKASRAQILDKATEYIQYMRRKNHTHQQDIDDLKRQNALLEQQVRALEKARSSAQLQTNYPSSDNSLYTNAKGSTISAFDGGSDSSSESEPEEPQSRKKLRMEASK

For the molecule “CCGGCTGACACGTGGTATTAAT (double strand) [biotinylated E-box DNA probe]”, the Kd in series [1] amounted to 1100 nM.

B1: E-box DNA probe (dsDNA)
DNA 1: CCGGCTGACACGTGGTATTAAT
DNA 2: ATTAATACCACGTGTCAGCCGG
Turning to B1, in series [2], the binding result is reported as “binds”.

As a reminder, the Kd is the equilibrium constant for the complex coming apart. High values mean a looser complex, low ones a tighter complex.
